# Results as given in PMC8605104 (STAR Protocols, 2021).
# T1: bacteriophage T7 ejection protein gp16 (internal virion protein), N-terminal 10x His-tagged, full-length (bacteriophage T7, UniProt P03726 1-1318)
# T1 sequence (looked up): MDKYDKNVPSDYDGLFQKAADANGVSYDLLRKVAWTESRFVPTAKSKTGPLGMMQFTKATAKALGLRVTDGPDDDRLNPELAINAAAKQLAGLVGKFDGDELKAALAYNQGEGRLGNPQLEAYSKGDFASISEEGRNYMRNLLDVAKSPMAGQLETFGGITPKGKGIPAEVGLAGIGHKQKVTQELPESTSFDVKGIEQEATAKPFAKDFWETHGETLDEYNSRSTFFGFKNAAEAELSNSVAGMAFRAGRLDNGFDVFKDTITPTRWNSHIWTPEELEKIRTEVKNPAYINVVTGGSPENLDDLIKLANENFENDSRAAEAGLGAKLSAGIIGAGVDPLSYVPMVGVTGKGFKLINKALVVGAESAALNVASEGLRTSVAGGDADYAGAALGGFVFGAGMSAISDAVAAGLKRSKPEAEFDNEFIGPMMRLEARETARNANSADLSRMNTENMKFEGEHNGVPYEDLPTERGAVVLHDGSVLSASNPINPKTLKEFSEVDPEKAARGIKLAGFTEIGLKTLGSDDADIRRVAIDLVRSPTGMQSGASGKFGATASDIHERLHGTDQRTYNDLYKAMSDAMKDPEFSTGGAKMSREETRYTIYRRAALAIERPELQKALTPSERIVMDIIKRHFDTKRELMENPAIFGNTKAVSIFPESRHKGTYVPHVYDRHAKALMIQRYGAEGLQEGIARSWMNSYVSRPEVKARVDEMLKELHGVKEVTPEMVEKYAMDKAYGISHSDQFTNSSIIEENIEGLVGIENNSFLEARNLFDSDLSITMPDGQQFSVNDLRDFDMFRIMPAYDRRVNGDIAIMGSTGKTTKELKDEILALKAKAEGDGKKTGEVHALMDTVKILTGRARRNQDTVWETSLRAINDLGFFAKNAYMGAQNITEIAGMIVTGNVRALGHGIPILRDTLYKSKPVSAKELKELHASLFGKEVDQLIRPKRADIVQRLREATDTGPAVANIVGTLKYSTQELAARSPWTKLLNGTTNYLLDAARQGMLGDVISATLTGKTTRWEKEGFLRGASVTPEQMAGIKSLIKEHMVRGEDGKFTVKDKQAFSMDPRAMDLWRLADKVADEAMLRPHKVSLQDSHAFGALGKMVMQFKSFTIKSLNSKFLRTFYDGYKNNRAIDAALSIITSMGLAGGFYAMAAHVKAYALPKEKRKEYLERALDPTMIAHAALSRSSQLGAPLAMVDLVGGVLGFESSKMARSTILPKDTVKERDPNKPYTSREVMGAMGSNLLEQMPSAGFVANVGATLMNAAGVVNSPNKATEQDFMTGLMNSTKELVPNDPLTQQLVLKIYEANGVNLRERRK
# B1: bacteriophage T7 ejection protein gp15 (internal virion protein), N-terminal 10x His-tagged, full-length (natural protein, UniProt P03725 1-747, looked up)
# chain: MSKIESALQAAQPGLSRLRGGAGGMGYRAATTQAEQPRSSLLDTIGRFAKAGADMYTAKEQRARDLADERSNEIIRKLTPEQRREALNNGTLLYQDDPYAMEALRVKTGRNAAYLVDDDVMQKIKEGVFRTREEMEEYRHSRLQEGAKVYAEQFGIDPEDVDYQRGFNGDITERNISLYGAHDNFLSQQAQKGAIMNSRVELNGVLQDPDMLRRPDSADFFEKYIDNGLVTGAIPSDAQATQLISQAFSDASSRAGGADFLMRVGDKKVTLNGATTTYRELIGEEQWNALMVTAQRSQFETDAKLNEQYRLKINSALNQEDPRTAWEMLQGIKAELDKVQPDEQMTPQREWLISAQEQVQNQMNAWTKAQAKALDDSMKSMNKLDVIDKQFQKRINGEWVSTDFKDMPVNENTGEFKHSDMVNYANKKLAEIDSMDIPDGAKDAMKLKYLQADSKDGAFRTAIGTMVTDAGQEWSAAVINGKLPERTPAMDALRRIRNADPQLIAALYPDQAELFLTMDMMDKQGIDPQVILDADRLTVKRSKEQRFEDDKAFESALNASKAPEIARMPASLRESARKIYDSVKYRSGNESMAMEQMTKFLKESTYTFTGDDVDGDTVGVIPKNMMQVNSDPKSWEQGRDILEEARKGIIASNPWITNKQLTMYSQGDSIYLMDTTGQVRVRYDKELLSKVWSENQKKLEEKAREKALADVNKRAPIVAATKAREAAAKRVREKRKQTPKFIYGRKE
# Legend:
# [1] = target: the molecule itself
# [2] = target: T1, bacteriophage T7 ejection protein gp16 …
binder,measurement,setting,value
B1,stoichiometry N,[1],6
same,stoichiometry N,[2],1 gp15:gp16 (6:6)
